In the nanobody polyreactivity screen of Harvey et al. (2022):

Assay: yeast display, Sf9 membrane polyspecificity reagent, FACS + sequencing; frameworks hold sequencing errors
Procedure, shortened: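 A nanobody's polyreactivity label depends on the gate it was sorted from. Yeast display cells were stained with 10% biotinylated, detergent-solubilized Sf9 membrane reagent for 1 hour at 4 °C, enriched on streptavidin microbeads and sorted by FACS. The low and high (top ~1%) gates were set on anti-HA fluorescence for expression and streptavidin fluorescence for reagent binding.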

| Sequence | polyreactivity (PSR sort gate) |
| --- | --- |
| QVQLVESGGGLVQAGGSLRLSCAASGSIFYFYAMGWYRQAPGKERELVATITRRTGRTYYADSVKGRFTISRDNAKNTVYLQMNSLKPEDTAVYYCAARPKGPYGVWYNYWGQGTQVTVSS | high polyreactivity |
| QVQLVESGGGLVQAGGSLRLSCAASGRILRTNAMGWYRQAPGKERELVAAISSDGSTYYADSVKGRFTISRDNAKNTVYLQMNSLKPEDTAVYYCAARLFYRGPRFDYWGQGTQVTVSS | low polyreactivity |
| QVQLVESGGGLVQAGGSLRLSCAASGITFSRYTMGWYRQAPGKERELVAGISSRGGSTYYADSVKGRFTISRDNAKNTVYLQMNSLKPEDTAVYYCAADGEHYPWYYYWGQGTQVTVSS | high polyreactivity |
| QVQLVESGGGLVQAGGSLRLICAASGRTFYSYAMAWYRQAPGQERELVAAISSGGTTYYADSVKGRFTISRDNAKNTVYLQMNSLKPEDTAVYYCATSRAWRYRSYYWGQGTQVTVSS | high polyreactivity |
| QFQLVESGGGLVQAGGSLRLSCAASGSIFGYYAMGWYRQAPGKESELVAAISASGGTTYYADSVKGRFTISRDYAKNTVYLQMNSLKPEDTAVYYCNKLYLKPGRYYYWGQGTQVTVSS | high polyreactivity |
| QVQLEESGGGLVQAGGSLRLSCAASGFTFYLYTMGWYRQAPGKERELVAAISRSGDRTYYADSVKGRFSISRDNAKNTVYLQMNSLKPEDTAVYYCAARSYRPTRGDYWGQGTQVTVSS | high polyreactivity |
| QVQLVESGGGLVQAGGSLRLSCAASGYTFVYYAMGLYREAPGKERELVAAITSGGRTNYADSVKGRFTISRDNAKNTVYLQMNSLKPEDTAVYYCNVDGYYLFVRGYEYWGQGTQVTVSS | low polyreactivity |
| QVQLVESGGRLVQAGGSLRLSCAASGLTFSSYAMGWYRQAPGKERQLVAAISRGGGSTYYADSVKGRFTISRDNAKNTGYLQMNSLKPEDTAVYYCAADSGFWWLYDYWGQGTHVTVSS | high polyreactivity |
| QLQLVESGGGLVQAGGSLRLSCAASGFTFYYNALGWYRQAPGKDRELVSSITRSGGRTYYAESVKGRFTISRENAKNTVYLQKNSLKPEDTAVYFCARRYPGGYYWGQGTQVTVSS | high polyreactivity |
| QVQLVESGGGLVQAGGSLRLICAASGSTFVPYTMAWYRQAPGKERELVAAISGSGGTDYADSVKGRFTISRDNGKNTVYLQMNSLKPEDTAVYYCAAYSRVVPSFYYWGQGTQVTVSS | low polyreactivity |
| QVQLVDSGGGLVQAGGSHRLSCAASGLTYHQYAMGWYRQAPGKERELVAAITSDGASTNYADSVKGRFTISRDNAKNTVYLQMISLKPEDTAVYYGAARRRSRQYRYDYWGQGTQVTVSS | high polyreactivity |
| QVQLVESGGVLVQAGGSLRLSCAASGRTFNLIAMGWYRQAPGKERELVAAISRSGGSTYYADSEKGRFTISRDNAKNTVYLQMNSLNPEETAVYYCNASALGRPYYRGSYFVFQGYEYWGLGTQVTVSS | low polyreactivity |
| QVQLVESGGRLVQAGGSLRLSCAASGRIFKYYAMGWYRPAPGKERELVAAINRDGGRTYYADSVKGRFTISRDTAKISVYLQMNSLKPEDTAVYYCAASYGYVYTTSLDYWGQGTQVTVSS | low polyreactivity |
| QVQLVESGGGLVQAGGSLRLSCAASGSIFSRNAMGWYRQAPGKVRELVAAITGSGSSTYYADSVKGRFTISRDNAKNTVYLQMNSLKPEDTAVYYCAKGSWWGYYSYGFDYWGQGTQVTVSS | high polyreactivity |
| QVQLVESGGGLVQAGGSLRLSCADSGNIFSWYAMGWYRQAPGKERELVAAITWSGGTTYYADSVKGRFTISRDNAKNTVYLQMNSLKPEDTAVYYCAVFSRYRSGYYSWGQGTQVTVSS | high polyreactivity |
| QVQLVESGGGLVQAGGSHRLSCAASGSTFRYYPMGWYRQAPGKERELVARITSRAGRTYYADSVKGRFTISRDNAKNTVYLQMNSVKPEDTAVYYCNANRFRRYDWGQGTQVTVSS | high polyreactivity |
| QVQLVESGVGLVQAGGSLRLSCAASASTFYGYTMGWNRQAPGKERELVAAITSTGRTYYADSVKGRFTISRDNAKNTVYLQMNSLKPEDTAVYYCAKKSSARRYDYDYWGQGTQVTVSS | high polyreactivity |
| QVQLVESGGGLVQAGGSLRLSCAASGSTFLYYTMGWYRQAPGKERELVAAITSGGDTNYADSVKGRFTISRDNAKNTVYLQINSLKPEDTAVYYCNAEYTWSGTKIYTYKYDYWGQGTQVTVSS | low polyreactivity |
| QVQLVESGGGLVQAGGSLRVSCAASGNIFVYNAMGWYRQAPGKERELVAAIDSGGSTYYADSVKGRFTISRDNAKNTVYLQMNSLKPEDTAVYYCAADYYSTYRTIYYYWGQGTQVTVSS | low polyreactivity |
| QVQLVESGGGLVQAGGSLCLSCAGSGIFVYKAMGRYRQAPGKEREFVAAINKSGASTFYADSVKGRFTISRDNAKKTVYLQMNSLKPEDTAVYYCAKVPHVYRHYYYWGQGTQVTVSS | low polyreactivity |
| QVQLVESGGGLVQAGGSLRLSCAASGRTFIFNAMGWYRQAPGKERELVAAISSGGGTNYADSVKWRFTISRDNAKNTVYLQMNSMKPEDTAVYYCAAVPRDHYSYVYDGDKYDYWGQGTQVTVSS | low polyreactivity |
| QVQLVESGVGLVQAGGSLRLSCAASGRTIKANAMGWYRQAPGKERELVAAISRRGGRTYYADSVKGRFTISRDNAKNTVYLQMNSLKPEDTAVYYCAVRWYSYRQRYNYWGQGTQVTVSS | high polyreactivity |

| Sequence | polyreactivity (PSR sort gate) |
| --- | --- |
| QVQLVESGGGLVQAGGSLRLSCAASGSTFNVYAMGWYRQAPGKERELVAGIRDSDGSTNYADSVKARFTISRDNAKNTVYLQMNSLKQEDPAVYYCAADLYDINWSVWLDYWGQGTQVTVSS | low polyreactivity |
| QVQLVESGGGLVQAGGSLRLSCAASGRIFARNAMGWYRQAPGKERELVAVITSRGGSTYYADSVKGRFTISRDNAKNTVYLQMNSLKPEDTAVYYCAARYSGEYGYWGQGTQVTVSS | high polyreactivity |
| QVQLQESGGGLVQAGGSLRLSCAASGNIVDADIMGWYRQAPGKEREIVASITDGGSTNYADSLKGRFTISRDNAKNTVYQQMNSLIPEDTAVYYCAAIAYPDIPPYFDYDSDYFDWGQGTQETVSS | high polyreactivity |
| QVQLVESGGGLVQAGGSLRLSCAASGNTFEDYAMGWYRQAPGKERELVAAINSGGSTNYADSVKGRFTISRDNAKNTVYLQMNSLKPEDTAVYYCAAEPGEGFDYWGQGTQVTVSS | low polyreactivity |
| QVQLVESGGGLVQAGGSLRLSCAASGFTFNYNTMGWYRQAPGKERELVARISRSGGRTYYADSVKGRFTISRDNAKNTVYLQMNSLKPEDTAVYYCNTDYYGVRHRYDYWGQGTQVTVSS | high polyreactivity |
| QVQLVESGGGLVQAGGSLRLTCAASGRTFGPYAMGWYRPAPGKERELVAAIRYIDDSTFYADSVKGRFTISRDNAKNTVYLQMNSLKPEDTAVYYCAAQRRVVGRHGLSLIRYDYWGQGTQVTVSS | low polyreactivity |
| QVQLVESGGGLVQAGGSLRLSCAASGRTFRHNTMGWYRQAPGKEREFVAVITSSGGSTYYADSVKGRFTISRDNAKNTVYLQMNSLKPEDTAVYYCNAKYHLSRSTYYYWGQGTQVTVSS | high polyreactivity |
| QVQLVESGGGLVQAGGSLRLSCAASGSTFTKNAMGWYRQAPGKERELVAAISFSGGSTYYADSVKGRFTISRDNAKNTVYLQMNSLKPEHTAVYYCAADPHRALPRFDYWGQGTQVTVSS | low polyreactivity |
| QVQLVESRGGLDQAGGSLRLSCAASGSIFNAYVMGWYRQAPGKERELVAAISRSGGRTYYADSVKGRFTISRDNAKNTVYLQMNSLKPEDTAVYYCAASTIWHYDSWGQGTQVTVSS | high polyreactivity |
| QVQLVESGGGLVQAGGSLRLSCAASGIIFPGYAMGWYRQAPGKERELVAAISSSGSSTYYADSVKGRFTISRDNGKNTVYLQMNSLKPEDTAVYYCAAVRYGLRRMDYWGQGTQVTVSS | high polyreactivity |
| QVQLVESGGGLVQAGGSLRLSCAASGSIFSAYAMGWYIQAPGKERELVAGITGSGGRTYYADSVKGRFTISRDNAKNTVYLQMNSLKPEDTAVYYCLARSYYNWYDYWGQGTQVTVSS | high polyreactivity |
| QVQLVESGGRLVQEGGSLRLSCAASGRTFSKYAMGWYRQAPGKERELVAAITWRGGRTYYADSVNGRFTISRDNAKNTVYLQMNSLKPEDTAVYYCAADPSIYRIYQYTNRYDYWGQGTQVTVSS | high polyreactivity |
| PVQLVETGGGLVQAGGSLRLSCAASGGIFTLYVLGWYRQPPGKERELVAAISRTGGSTYYADSVKARFTISRDNAKNTVYLQMNSLKPEDTAVYYCAADYRQPSAFYYWGQGTQVTVSS | high polyreactivity |
| QVQLVESGGGLVQAGGSLRLSCAASGQIFYTNTMGWYRQAPGKERELVAAINSGDRTYYADSVKGRFTISRDNAKNTVYLQMNSLKPEDTAVYYCAARNYATAVRYDYWGQGTQVTVSS | high polyreactivity |
| QVQLVESGGGLVQAGGSLRLSCAASGSIFRGNAMGWYRQAPGKERELVAGINRAGSTKYADSVKGRFTISRDNAKNTVYLQMNSLKPEDTAVYYCAAVRYERGLWSDYWGQGTQVSVSS | high polyreactivity |
| QVQLVESGGGLVQAGGSLRLSCAASGYIFTEYAMGWYRQAPGKERELVAAIDWSGGSTYYADSVKGRFTISRDNAKNTVYLQMNSLKPEDTAVYYCAKYYYTSIVGYDSWGQGTQVTVSS | low polyreactivity |
| QVQLVESGGGLVQAGGTLRLTCAASGTFYGNNMGWYIHAPGKQRELVATIRRSTGSTYYADSVKGRFTISRDNAKNTVYLQMNSLKPEDTAVYYCAAEIYSYYRLYWYDYRGQGTQVTVSS | high polyreactivity |
| QVQLVESGGGLVQAGGSLRLSCAASGFIIKVYAMGWYRQAPGKERELVAAITWSGGSTYYADSVKGRFTISRDNAKNTVYLQMNSLKPEDTAVYYCAADTYYPDWITYPQGDFDYWGQGTQVTVSS | low polyreactivity |
| QVQLVESGGGLVQAGGSLRLSCAASGSTFAYNAMGWYRQAPGKERELVASISWTGGSTYYADSVKGRFTISRDNAKNTVYLQMNSLKPEDTAVYYCAVDWLEGYEFDSWGQGTQVTVSS | low polyreactivity |
| QVQLVESGGGLVQAGGSLRLSCAASGLIFGYNAMGWYRQAPGKEREFVAGISVIDGRTYYADSVKGRFTISRDNAKNTVYLQMNSLKPEDTAVYYCAADRWYKYYFLTYGYWGQGTQVTVSS | low polyreactivity |
| QVQLVVSGGGLVQAGGSLRLSCAASGRTFSIYAMGWYRQAPWKERELVAAISWSGGRTYYADSVKGRFTISRDNAKNTVYLLMNSLKPEDTAVYYCNKDWIYRGYDYWGQGTQVTVSS | high polyreactivity |
